From patent US7001748B2, “Methods of making polyketides using hybrid polyketide synthases” (The Board of Trustees of the Leland Stanford Junior …, priority 1999, dated 2006) come the findings set out here.

This test has as its target T1, (5)M2+TE (Saccharopolyspora erythraea, UniProt Q03131+Q03133).
T1 construct: a single module of the DEBS PKS fused to the thioesterase (TE) termination region of module 6; made in house; host or cells: E. coli BL21(DE3); ACP4(4) from pNW8 (pET28a), phosphopantetheinylated in vitro with Sfp
Put plainly: Labeling of holo-ACP4(4) with 14C-2a mediated by (5)M2+TE (back-transfer). The class given is biochemical. Particulars: presence and absence of (5)M2+TE. On the procedure:
Labeling of Holo-ACP4(4) with ^14C-2a Mediated by (5)M2+TE. Holo-ACP4(4) (20 μM) was incubated with 1 mM [1-^14C]-labeled 2a (custom synthesized by Amersham Pharmacia, specific activity 55 mCi/mmol) and 1 μM (5)M2+TE in reaction buffer C for 10 min at 30° C. The protein was precipitated with 75% acetone/H2O for 5 min at −80° C. After washing the pellet with 6.25% (w/v) TCA to remove excess salts followed by 500 μL of 75% acetone/H2O to remove residual, unbound 14 C-2a, the precipitated protein was resuspended in 8 μL of buffer A and 4 μL of SDS sample buffer, and resolved on a 4-20% SDS-PAGE gradient gel (Bio-Rad). The proteins were visualized with Coomassie blue stain and dried, and the radioactivity was detected either on a Packard InstantImager or by exposing the gel to X-ray film.

B1: holo-ACP4(4): DEBS ACP4 catalytic domain with its natural C-terminal linker, phosphopantetheinylated (protein)
chain: HHHHHHNVVDRLAGRSESDQVAGLAELVRSHAAAVSGYGSADQLPERKAFKDLGFDSLAAVELRNRLGTATGVRLPSTLVFDHPTPLAVAEHLRDRLFAASPAVDIGDRLDELEKALEALSAEDGHDDVGQRLESLLRRWNSRRADAPSTSAISEDASDDELFSMLDQRFGGGEDL
modifications: non-natural residues
notes: DEBS ACP4 catalytic domain with its natural C-terminal linker, phosphopantetheinylated
Take B1: the “radiolabeling of ACP by 14C-2a” value is on record as “radiolabeled only in the reaction containing (5)-M2+TE”.
